Biological target: FITC-SgbA(leader) (Streptomyces globisporus sp. NRRL B-2293)
Experiment: fluorescence polarisation

Row | Substance | Kd
1 | His6-MBP-SgbL(208–318) (domain or fragment) | 31 µM
2 | His6-SgbL(lyase-kinase 1–548) D369A (domain or fragment) | 0.353 µM
3 | His6-SgbL(lyase-kinase 1–548) K248A (domain or fragment) | 7.11 µM
4 | His6-SgbL(lyase-kinase 1–548) D351A (domain or fragment) | 0.576 µM
5 | His6-SgbL(lyase-kinase 1–548) (domain or fragment) | 0.251 µM
6 | His6-SgbL(lyase-kinase 1–548) E270A (domain or fragment) | 1.72 µM
7 | His6-SgbL(lyase-kinase 1–548) N356A (domain or fragment) | 0.321 µM

— paper PMC6642009
